± gives the standard deviation of the averaged measurements.
Test: total protein half-life in vivo (active degradation + dilution); higher = more stable protein
[1] = E. coli NCM3722 delta-clpP delta-lon delta-hslV, growth: N-lim chemostat, doubling time 6 h
[2] = E. coli NCM3722 delta-clpP, growth: N-lim chemostat, doubling time 6 h
[3] = E. coli NCM3722 delta-hslV, growth: N-lim chemostat, doubling time 6 h
[4] = E. coli NCM3722 delta-lon, growth: N-lim chemostat, doubling time 6 h
[5] = E. coli NCM3722 delta-smpB, growth: N-lim chemostat, doubling time 6 h
[6] = wild type E. coli NCM3722, growth: C-lim chemostat, doubling time 3 h
[7] = wild type E. coli NCM3722, growth: C-lim chemostat, doubling time 6 h
[8] = wild type E. coli NCM3722, growth: C-lim chemostat, doubling time 12 h
[9] = wild type E. coli NCM3722, growth: N-lim chemostat, doubling time 6 h
[10] = wild type E. coli NCM3722, growth: N-lim chemostat, doubling time 12 h
[11] = wild type E. coli NCM3722, growth: P-lim chemostat, doubling time 6 h
[12] = wild type E. coli NCM3722, growth: P-lim chemostat, doubling time 12 h

| Sequence | total protein half-life in vivo [1] [h] | total protein half-life in vivo [2] [h] | total protein half-life in vivo [3] [h] | total protein half-life in vivo [4] [h] | total protein half-life in vivo [5] [h] | total protein half-life in vivo [6] [h] | total protein half-life in vivo [7] [h] | total protein half-life in vivo [8] [h] | total protein half-life in vivo [9] [h] | total protein half-life in vivo [10] [h] | total protein half-life in vivo [11] [h] | total protein half-life in vivo [12] [h] |
| --- | --- | --- | --- | --- | --- | --- | --- | --- | --- | --- | --- | --- |
| MKLLIVEDEKKTGEYLTKGLTEAGFVVDLADNGLNGYHLAMTGDYDLIILDIMLPDVNGWDIVRMLRSANKGMPILLLTALGTIEHRVKGLELGADDYLVKPFAFAELLARVRTLLRRGAAVIIESQFQVADLMVDLVSRKVTRSGTRITLTSKEFTLLEFFLRHQGEVLPRSLIASQVWDMNFDSDTNAIDVAVKRLRGKIDNDFEPKLIQTVRGVGYMLEVPDGQ [P0ACZ8] | 5.08 ± 1 | 4.18 ± 0.13 | 4.01 ± 0.29 | 4.738 ± 0.0044 | 3.77 ± 0.45 | 2.77 ± 0.42 | 5.62 ± 0.89 | 8.61 ± 0.84 | 4.53 ± 0.78 | 7.44 ± 0.99 | 4.5 ± 0.3 | 9.01 ± 0.29 |
| MKLLQRGVALALLTTFTLASETALAYEQDKTYKITVLHTNDHHGHFWRNEYGEYGLAAQKTLVDGIRKEVAAEGGSVLLLSGGDINTGVPESDLQDAEPDFRGMNLVGYDAMAIGNHEFDNPLTVLRQQEKWAKFPLLSANIYQKSTGERLFKPWALFKRQDLKIAVIGLTTDDTAKIGNPEYFTDIEFRKPADEAKLVIQELQQTEKPDIIIAATHMGHYDNGEHGSNAPGDVEMARALPAGSLAMIVGGHSQDPVCMAAENKKQVDYVPGTPCKPDQQNGIWIVQAHEWGKYVGRADFEFRNGEMKMVNYQLIPVNLKKKVTWEDGKSERVLYTPEIAENQQMISLLSPFQNKGKAQLEVKIGETNGRLEGDRDKVRFVQTNMGRLILAAQMDRTGADFAVMSGGGIRDSIEAGDISYKNVLKVQPFGNVVVYADMTGKEVIDYLTAVAQMKPDSGAYPQFANVSFVAKDGKLNDLKIKGEPVDPAKTYRMATLNFNATGGDGYPRLDNKPGYVNTGFIDAEVLKAYIQKSSPLDVSVYEPKGEVSWQ | 5.52 ± 0.41 | 5.69 ± 0.46 | 6.306 ± 0.01 | 6.44 ± 0.24 | 5.9 ± 0.07 | 3.091 ± 0.03 | 6.01 ± 0.52 | 12.9 ± 0.35 | 6.62 ± 0.42 | 12.4 ± 1.3 | 5.21 ± 0.21 | 11.2 ± 0.18 |
| MKLNATYIKIRDKWWGLPLFLPSLILPIFAHINTFAHISSGEVFLFYLPLALMISMMMFFSWAALPGIALGIFVRKYAELGFYETLSLTANFIIIIILCWGGYRVFTPRRNNVSHGDTRLISQRIFWQIVFPATLFLILFQFAAFVGLLASRENLVGVMPFNLGTLINYQALLVGNLIGVPLCYFIIRVVRNPFYLRSYYSQLKQQVDAKVTKKEFALWLLALGALLLLLCMPLNEKSTIFSTNYTLSLLLPLMMWGAMRYGYKLISLLWAVVLMISIHSYQNYIPIYPGYTTQLTITSSSYLVFSFIVNYMAVLATRQRAVVRRIQRLAYVDPVVHLPNVRALNRALRDAPWSALCYLRIPGMEMLVKNYGIMLRIQYKQKLSHWLSPLLEPGEDVYQLSGNDLALRLNTESHQERITALDSHLKQFRFFWDGMPMQPQIGVSYCYVRSPVNHIYLLLGELNTVAELSIVTNAPENMQRRGAMYLQRELKDKVAMMNRLQQALEHNHFFLMAQPITGMRGDVYHEILLRMKGENDELISPDSFLPVAHEFGLSSSIDMWVIEHTLQFMAENRAKMPAHRFAINLSPTSVCQARFPVEVSQLLAKYQIEAWQLIFEVTESNALTNVKQAQITLQHLQELGCQIAIDDFGTGYASYARLKNVNADLLKIDGSFIRNIVSNSLDYQIVASICHLARMKKMLVVAEYVENEEIREAVLSLGIDYMQGYLIGKPQPLIDTLNEIEPIRESA | 5.56 |  |  |  |  | 2.98 | 5.24 | 9.12 | 4.99 | 6.22 |  | 11.5 |
| MKLRLSALALGTTLLVGCASSGTDQQGRSDPLEGFNRTMYNFNFNVLDPYIVRPVAVAWRDYVPQPARNGLSNFTGNLEEPAVMVNYFLQGDPYQGMVHFTRFFLNTILGMGGFIDVAGMANPKLQRTEPHRFGSTLGHYGVGYGPYVQLPFYGSFTLRDDGGDMADGFYPVLSWLTWPMSVGKWTLEGIETRAQLLDSDGLLRQSSDPYIMVREAYFQRHDFIANGGELKPQENPNAQAIQDDLKDIDSE | 6.54 ± 0.28 | 6.05 ± 0.062 |  |  | 5.99 ± 0.31 | 3.153 ± 0.018 | 6.61 ± 1.3 | 13.9 ± 0.49 | 6.37 ± 0.039 | 12.59 ± 0.014 | 5.98 ± 0.64 | 13.4 ± 0.97 |
| MKLSTCCAALLLALASPAVLAAPGSCERIQSDISQRIINNGVPESSFTLSIVPNDQVDQPDSQVVGHCANDTHKILYTRTTSGNVSAPAQSSQDGAPAEPQ |  | 6.13 |  | 6.79 | 4.61 | 3.25 | 6.33 |  | 5.52 | 11.6 ± 1.9 | 5.94 ± 0.1 | > 16 |
| MKLVTVIIKPFKLEDVREALSSIGIQGLTVTEVKGFGRQKGHAELYRGAEYSVNFLPKVKIDVAIADDQLDEVIDIVSKAAYTGKIGDGKIFVAELQRVIRIRTGEADEAAL [P0AC55] |  | 5.2 ± 0.45 | 5.45 ± 0.14 | 5.044 ± 0.034 | 4.83 ± 0.068 | > 4 | 7.02 |  | 5.43 ± 0.42 | 8.82 ± 0.72 |  | 13.6 ± 2.6 |
| MKLYIYDHCPYCLKARMIFGLKNIPVELHVLLNDDAETPTRMVGQKQVPILQKDDSRYMPESMDIVHYVDKLDGKPLLTGKRSPAIEEWLRKVNGYANKLLLPRFAKSAFDEFSTPAARKYFVDKKEASAGNFADLLAHSDGLIKNISDDLRALDKLIVKPNAVNGELSEDDIQLFPLLRNLTLVAGINWPSRVADYRDNMAKQTQINLLSSMAI [P0AC59] |  | 5.06 ± 0.73 | 5.49 ± 0.35 | 5.77 ± 0.24 | 5.01 ± 0.41 |  | 5.57 ± 0.23 | 11.7 ± 1.8 | 5.02 ± 0.15 | 9.43 ± 0.3 | 5.33 ± 0.55 | 11.9 ± 0.21 |

Reference: the supplement of paper PMC11246515
